Positions count from the first letter of the chain named. Where two headings read alike, the source gives them in different places.
B1: MON-HT52: engineered oxygenase protein, amino acid sequence SEQ ID NO:4 (protein)
chain: MHAALSPLSQRFERIAVQPLTGVLGAEITGVDLREPLDDSTWNEILDAFHTYQVIYFPGQAITNEQQIAFSRRFGPVDPVPLLKSIEGYPEVQMIRREANESGRVIGDDWHTDSTFLDAPPAAVVMRAIDVPEHGGDTGFLSMYTAYDALSDGLKKLISGLNVVHSATRVFGSLYQAQNRRFSNTSVKVMDVDAGDRETVHPLVVTHPGSGRKGLYVNQVYCQRIEGMSEKESEPLLSFLFAHATKPEFTCRVRWKKDQVLVWDNLCTMHYAINDYHGQTRILHRTTVGGVRPAR
B2: MON-HT53: engineered oxygenase protein, amino acid sequence SEQ ID NO:7 (protein)
chain: B1 chain with D38S, Q67H, T112S
B3: MON-HT54: engineered oxygenase protein, amino acid sequence SEQ ID NO:9 (protein)
chain: B1 chain with Q67H, I106L, D193A, A194D, L261V
B4: MON-HT14: engineered oxygenase protein, amino acid sequence SEQ ID NO:48 (protein)
chain: MHAALTPLTNKYRHIDVQPLTGVLGAEITGVDLREPLDDSTWNEILDAFHTYQVIYFPGQAITNEQHIAFSRRFGPVDPVPILKSIEGYPEVQMIRREANESSRYIGDDWHADSTFLDAPPAAVVMRAIEVPEYGGDTGFLSMYSAWETLSPTMQATIEGLNVVHSATKVFGSLYQATNWRFSGTSVKVMDVDAGDRETVHPLVVTHPVTGRRALYCNQVYCQKIQGMTDAESKSLLQFLYEHATQFDFTCRVRWKKDQVLVWDNLCTMHRAVPDYAGKFRYLTRTTVAGDKPSR
B5: MON-HT18: engineered oxygenase protein, amino acid sequence SEQ ID NO:52 (protein)
chain: B4 chain with G184N

Tests used:
[1] = high-throughput enzyme assay with crude bacterial extract; type: biochemical; conditions: relative to wild-type RdpA; for Average quizalofop-P activity: average of replicates
Method: The high-throughput bacterial protein expression was achieved by synthesizing a recombinant DNA molecule encoding each engineered protein and cloning this into a bacterial expression vector with a C-terminal histidine tag (His-tag) operably linked to the recombinant DNA molecule. The vectors were used to transform Escherichia coli (E. coli), and bacterial expression of the engineered proteins was induced. Overnight E. coli cultures were grown in 96-well plates and the cultures were centrifuged to pellet the bacteria. The bacterial pellets were lysed by adding 100 ul lysis master mix (10 ml of Bacteria Protein Extraction Reagent (B-PER®) II (Pierce Biotechnology, Rockford, IL; cat. no. 78260); 10 ul Lysozyme (10 ug/ml final; Lysozyme American Bioanalytical, Natick, MA; cat. no. AB011780-00005); and 40 ul Benzonase® Nuclease (100 Units/ml final, Novagen, Darmstadt, Germany; cat no 71206-3)) to each well. The plates were vortexed then incubated for 30 minutes at 4° C. 400 ul of MOPS buffer (pH 6.57) was added to cach well and the debris pelleted by centrifugation. The lysate supernatant was carefully removed and used as the crude bacterial extract for subsequent enzymatic analysis.
(§1) The high-throughput herbicide degradation enzyme assay was designed to assay the enzymatic activity of the engineered proteins towards various herbicides using crude bacterial extract. The engineered protein's oxygenase activity (that is, its enzymatic activity) was measured by an end point colorimetric assay utilizing detection of phenol products through measurement of absorbance at 510 nm from 4-aminoantipyrine and potassium ferricyanide. This assay was based on the assay described in Fukomori and Hausinger, Journal of Biological Chemistry (1993) 268(32):24311-24317. Enzyme reactions were assayed in 96-well plates in a total volume of 150ul that contained: 20 mM MOPS pH 6.75, 50-200 uM NH4FeSO4, 50-200 uM sodium ascorbate, 1 mM alpha-ketoglutarate (aKG), 10 ul of E. coli cell lysate containing expressed engineered protein, and substrate (either an AOPP herbicide or phenoxy acid herbicide). […] Absorbance measurements were made on a standard laboratory spectrometer. Assays were scaled as needed to enhance throughput. Standard curves were generated using purified protein or product standards.
Using this high-throughput bacterial protein expression and enzyme assay system, activities of approximately 1200 engineered proteins were measured relative to the activity of a selected wild-type protein, RdpA. In a 96 well plate assay, there were 3 controls (crude bacterial extract without an engineered protein) and 3 positive controls (crude bacterial extract with wild-type protein). The absorbance of the wells was measured and the protein activity was calculated using the following formula:
[formula] where, Activityi is the activity of the sample, Absorbancei is the absorbance of the sample, AbsorbanceWT is the absorbance of the wells containing extract from E. coli expressing the wild-type enzyme, and AbsorbancepET is the absorbance of the wells containing extract from E. coli without an engineered protein. Activity for each unique engineered protein was measured in duplicate and was reported as an average of the two measurements.
Using the information learned from the first assays, protein engineering was then done as described previously to produce additional engineered proteins, which were tested as described in this Example 1. The results of the high-throughput enzyme assay with quizalofop-P as the substrate for five of these additional engineered proteins are provided in Table 2.

[2] = enzyme kinetic measurements with purified protein; type: biochemical; conditions: for Km: 0-1280 uM substrate; for Vmax Fenoxaprop / Vmax Fluazifop / Vmax Haloxyfop / Vmax Quizalofop-P: relative values
Method: as §1
Further protein characterization, such as Km, Vmax, and crystal structure analysis, was performed using the five engineered proteins from Table 2. For this detailed analysis, purified protein was prepared as follows: 2 ml overnight cultures of E. coli expressing a transgene encoding a given MON-HT protein were used to inoculate 500 ml of broth and grown at 37° C. for 4 hours followed by culture at 15° C. for approximately 36 hours. Then 250 ml of the 500 ml bacterial culture was pelleted by centrifugation and resuspended in 25 ml of extraction buffer (20 mM Tris, pH 7.8, 300 mM NaCl, 5 mM beta-mercaptoethanol (BME), 20 mM imidazole (Fluka/Sigma-Aldrich, St. Louis, MO), 125 units/ml of benzonase and 10K units/ml of lysozyme (Novagen, Darmstadt, Germany). The cell slurry was passed through a cell disruptor once at 20000 psi and then this cell lysate was clarified by centrifugation at 35,000×g for 20 min at 4° C. The supernatant containing the soluble His-tagged proteins was used for protein purification. For this purification, the supernatant was applied to a 1 ml HisTrap™ FF column (Nickel Sepharose) (GE Healthcare, Piscataway, NJ) using an AKTaxpress™ system (GE Healthcare, Piscataway, NJ) following the standard manufacturer's protocol. The wash buffer consisted of: 20 mM Tris pH 7.8, 300 mM NaCl, 20 mM imidazole and 5 mM BME. The composition of elution buffer was the same as the wash buffer except with 500 mM imidazole. The eluate from the nickel column was desalted on a Quick Spin Protein Sephadex G-25 fine column (Roche Applied Science, Indianapolis, IN) following the manufacturer's protocol. The eluted protein was in buffer consisting of: 20 mM Tris pH 7.8, 50 mM NaCl and 5 mM BME. Protein extract purity was assessed by SDS-PAGE analysis. Protein concentration was determined by Bradford assay using Bio-Rad Protein Assay dye reagent (Biorad, Hercules, CA, cat no 500-0006).
Purified protein for the five engineered proteins was analyzed using the enzyme assay described in this Example 1, but with four different AOPP herbicides as substrates: quizalofop-P, haloxyfop, fenoxaprop, and fluazifop. Standard curves were generated using 2,4-dichlorophenol (2,4-DCP), which was used to produce a general phenol standard curve. The amount of phenol generated in the assay by the engineered proteins was calculated based on this standard curve. The controls were purified wild-type enzyme, no enzyme, and no substrate. Enzyme kinetic measurements of the five engineered proteins was done using 0, 20, 40, 80, 160, 320, 640, or 1280 uM of quizalofop-P, haloxyfop, fenoxaprop, or fluazifop herbicides.

[3] = tested on: transgenic soybean plants; experiment: R0 soybean 2,4-D spray test of 2,4-D optimized variants; type: in vivo; conditions: for tolerance to 2,4-D treatment: 2× application rate, soy
Excerpt: An additional five engineered proteins optimized for activity for 2,4-D were then selected for analysis in transgenic soybean. DNA constructs were produced for expressing MON-HT13 (SEQ ID NO:47), MON-HT14 (SEQ ID NO:48), MON-HT15 (SEQ ID NO:49), MON-HT17 (SEQ ID NO:51), and MON-HT18 (SEQ ID NO:52) with codon usage optimized for dicot expression. The operably linked expression elements (promoter, leader, intron, CTP, and 3′UTR) were identical in all of the constructs. Leaf samples were taken from R0 plantlets and single copy plants were identified using a PCR-based assay. When the single-copy R0 plants had approximately two to three trifoliate leaves, they were treated with either 1.5 lb ae/acre (2×) or 3.0 lb ae/acre (4×) of 2,4-D. Seven days after herbicide application, the plants were scored for herbicide injury based on the percent area of the plant showing injury, as indicated above.

[4] = 2,4-D rate 2X (1.5 lb ae/acre), single copy R0 soy, seven days after application

Row | Molecule | Replicate 1 quizalofop-P activity [1] | Replicate 2 quizalofop-P activity [1] | Replicate 3 quizalofop-P activity [1] | Average quizalofop-P activity [1] | Km ([2]; read-out: Km Fenoxaprop) [µM] | Km ([2]; read-out: Km Fluazifop) [µM] | Km ([2]; read-out: Km Haloxyfop) [µM] | Km ([2]; read-out: Km Quizalofop-P) [µM] | Vmax Fenoxaprop [2] | Vmax Fluazifop [2] | Vmax Haloxyfop [2] | Vmax Quizalofop-P [2] | Events with <20% injury [3, 4] | tolerance to 2,4-D treatment [3] | Events with 20-50% injury [3, 4]
1 | B1 | 92.17 | 54.46 | 89.75 | 78.79 | 490 | 14 | 280 | 420 | 420 | 43 | 45 | 39 | – | – | –
2 | B2 | 105.34 | 105.31 | 106.13 | 105.60 | 1100 | 1 | 290 | 690 | 640 | 40 | 64 | 95 | – | – | –
3 | B3 | 131.85 | 149.77 | 130.56 | 137.39 | 2100 | – | 380 | 560 | 630 | – | 40 | 32 | – | – | –
4 | B4 | – | – | – | – | – | – | – | – | – | – | – | – | 9 | excellent tolerance | –
5 | B5 | – | – | – | – | – | – | – | – | – | – | – | – | 11 | excellent tolerance | 1

Source: patent US12723255B2, “Herbicide tolerance genes and methods of use thereof” (priority 2014, dated 2026)
